Measured values: article PMC12192683

Target: low-density lipoprotein receptor-related protein 1 (LRP1), full-length, purified from human placenta (human) (UniProt Q07954)
Test: SPR; LRP1 amine-coupled to CM5 chip; RBD or alkylated RBD flowed in HBS-P with 1 mM CaCl2, 25 C; equilibrium analysis (Req against concentration, single class of sites) and single injections of 1 uM

Chain of low-density lipoprotein receptor-related protein 1 (LRP1), full-length, purified from human placenta (human) (Q07954 20-4544): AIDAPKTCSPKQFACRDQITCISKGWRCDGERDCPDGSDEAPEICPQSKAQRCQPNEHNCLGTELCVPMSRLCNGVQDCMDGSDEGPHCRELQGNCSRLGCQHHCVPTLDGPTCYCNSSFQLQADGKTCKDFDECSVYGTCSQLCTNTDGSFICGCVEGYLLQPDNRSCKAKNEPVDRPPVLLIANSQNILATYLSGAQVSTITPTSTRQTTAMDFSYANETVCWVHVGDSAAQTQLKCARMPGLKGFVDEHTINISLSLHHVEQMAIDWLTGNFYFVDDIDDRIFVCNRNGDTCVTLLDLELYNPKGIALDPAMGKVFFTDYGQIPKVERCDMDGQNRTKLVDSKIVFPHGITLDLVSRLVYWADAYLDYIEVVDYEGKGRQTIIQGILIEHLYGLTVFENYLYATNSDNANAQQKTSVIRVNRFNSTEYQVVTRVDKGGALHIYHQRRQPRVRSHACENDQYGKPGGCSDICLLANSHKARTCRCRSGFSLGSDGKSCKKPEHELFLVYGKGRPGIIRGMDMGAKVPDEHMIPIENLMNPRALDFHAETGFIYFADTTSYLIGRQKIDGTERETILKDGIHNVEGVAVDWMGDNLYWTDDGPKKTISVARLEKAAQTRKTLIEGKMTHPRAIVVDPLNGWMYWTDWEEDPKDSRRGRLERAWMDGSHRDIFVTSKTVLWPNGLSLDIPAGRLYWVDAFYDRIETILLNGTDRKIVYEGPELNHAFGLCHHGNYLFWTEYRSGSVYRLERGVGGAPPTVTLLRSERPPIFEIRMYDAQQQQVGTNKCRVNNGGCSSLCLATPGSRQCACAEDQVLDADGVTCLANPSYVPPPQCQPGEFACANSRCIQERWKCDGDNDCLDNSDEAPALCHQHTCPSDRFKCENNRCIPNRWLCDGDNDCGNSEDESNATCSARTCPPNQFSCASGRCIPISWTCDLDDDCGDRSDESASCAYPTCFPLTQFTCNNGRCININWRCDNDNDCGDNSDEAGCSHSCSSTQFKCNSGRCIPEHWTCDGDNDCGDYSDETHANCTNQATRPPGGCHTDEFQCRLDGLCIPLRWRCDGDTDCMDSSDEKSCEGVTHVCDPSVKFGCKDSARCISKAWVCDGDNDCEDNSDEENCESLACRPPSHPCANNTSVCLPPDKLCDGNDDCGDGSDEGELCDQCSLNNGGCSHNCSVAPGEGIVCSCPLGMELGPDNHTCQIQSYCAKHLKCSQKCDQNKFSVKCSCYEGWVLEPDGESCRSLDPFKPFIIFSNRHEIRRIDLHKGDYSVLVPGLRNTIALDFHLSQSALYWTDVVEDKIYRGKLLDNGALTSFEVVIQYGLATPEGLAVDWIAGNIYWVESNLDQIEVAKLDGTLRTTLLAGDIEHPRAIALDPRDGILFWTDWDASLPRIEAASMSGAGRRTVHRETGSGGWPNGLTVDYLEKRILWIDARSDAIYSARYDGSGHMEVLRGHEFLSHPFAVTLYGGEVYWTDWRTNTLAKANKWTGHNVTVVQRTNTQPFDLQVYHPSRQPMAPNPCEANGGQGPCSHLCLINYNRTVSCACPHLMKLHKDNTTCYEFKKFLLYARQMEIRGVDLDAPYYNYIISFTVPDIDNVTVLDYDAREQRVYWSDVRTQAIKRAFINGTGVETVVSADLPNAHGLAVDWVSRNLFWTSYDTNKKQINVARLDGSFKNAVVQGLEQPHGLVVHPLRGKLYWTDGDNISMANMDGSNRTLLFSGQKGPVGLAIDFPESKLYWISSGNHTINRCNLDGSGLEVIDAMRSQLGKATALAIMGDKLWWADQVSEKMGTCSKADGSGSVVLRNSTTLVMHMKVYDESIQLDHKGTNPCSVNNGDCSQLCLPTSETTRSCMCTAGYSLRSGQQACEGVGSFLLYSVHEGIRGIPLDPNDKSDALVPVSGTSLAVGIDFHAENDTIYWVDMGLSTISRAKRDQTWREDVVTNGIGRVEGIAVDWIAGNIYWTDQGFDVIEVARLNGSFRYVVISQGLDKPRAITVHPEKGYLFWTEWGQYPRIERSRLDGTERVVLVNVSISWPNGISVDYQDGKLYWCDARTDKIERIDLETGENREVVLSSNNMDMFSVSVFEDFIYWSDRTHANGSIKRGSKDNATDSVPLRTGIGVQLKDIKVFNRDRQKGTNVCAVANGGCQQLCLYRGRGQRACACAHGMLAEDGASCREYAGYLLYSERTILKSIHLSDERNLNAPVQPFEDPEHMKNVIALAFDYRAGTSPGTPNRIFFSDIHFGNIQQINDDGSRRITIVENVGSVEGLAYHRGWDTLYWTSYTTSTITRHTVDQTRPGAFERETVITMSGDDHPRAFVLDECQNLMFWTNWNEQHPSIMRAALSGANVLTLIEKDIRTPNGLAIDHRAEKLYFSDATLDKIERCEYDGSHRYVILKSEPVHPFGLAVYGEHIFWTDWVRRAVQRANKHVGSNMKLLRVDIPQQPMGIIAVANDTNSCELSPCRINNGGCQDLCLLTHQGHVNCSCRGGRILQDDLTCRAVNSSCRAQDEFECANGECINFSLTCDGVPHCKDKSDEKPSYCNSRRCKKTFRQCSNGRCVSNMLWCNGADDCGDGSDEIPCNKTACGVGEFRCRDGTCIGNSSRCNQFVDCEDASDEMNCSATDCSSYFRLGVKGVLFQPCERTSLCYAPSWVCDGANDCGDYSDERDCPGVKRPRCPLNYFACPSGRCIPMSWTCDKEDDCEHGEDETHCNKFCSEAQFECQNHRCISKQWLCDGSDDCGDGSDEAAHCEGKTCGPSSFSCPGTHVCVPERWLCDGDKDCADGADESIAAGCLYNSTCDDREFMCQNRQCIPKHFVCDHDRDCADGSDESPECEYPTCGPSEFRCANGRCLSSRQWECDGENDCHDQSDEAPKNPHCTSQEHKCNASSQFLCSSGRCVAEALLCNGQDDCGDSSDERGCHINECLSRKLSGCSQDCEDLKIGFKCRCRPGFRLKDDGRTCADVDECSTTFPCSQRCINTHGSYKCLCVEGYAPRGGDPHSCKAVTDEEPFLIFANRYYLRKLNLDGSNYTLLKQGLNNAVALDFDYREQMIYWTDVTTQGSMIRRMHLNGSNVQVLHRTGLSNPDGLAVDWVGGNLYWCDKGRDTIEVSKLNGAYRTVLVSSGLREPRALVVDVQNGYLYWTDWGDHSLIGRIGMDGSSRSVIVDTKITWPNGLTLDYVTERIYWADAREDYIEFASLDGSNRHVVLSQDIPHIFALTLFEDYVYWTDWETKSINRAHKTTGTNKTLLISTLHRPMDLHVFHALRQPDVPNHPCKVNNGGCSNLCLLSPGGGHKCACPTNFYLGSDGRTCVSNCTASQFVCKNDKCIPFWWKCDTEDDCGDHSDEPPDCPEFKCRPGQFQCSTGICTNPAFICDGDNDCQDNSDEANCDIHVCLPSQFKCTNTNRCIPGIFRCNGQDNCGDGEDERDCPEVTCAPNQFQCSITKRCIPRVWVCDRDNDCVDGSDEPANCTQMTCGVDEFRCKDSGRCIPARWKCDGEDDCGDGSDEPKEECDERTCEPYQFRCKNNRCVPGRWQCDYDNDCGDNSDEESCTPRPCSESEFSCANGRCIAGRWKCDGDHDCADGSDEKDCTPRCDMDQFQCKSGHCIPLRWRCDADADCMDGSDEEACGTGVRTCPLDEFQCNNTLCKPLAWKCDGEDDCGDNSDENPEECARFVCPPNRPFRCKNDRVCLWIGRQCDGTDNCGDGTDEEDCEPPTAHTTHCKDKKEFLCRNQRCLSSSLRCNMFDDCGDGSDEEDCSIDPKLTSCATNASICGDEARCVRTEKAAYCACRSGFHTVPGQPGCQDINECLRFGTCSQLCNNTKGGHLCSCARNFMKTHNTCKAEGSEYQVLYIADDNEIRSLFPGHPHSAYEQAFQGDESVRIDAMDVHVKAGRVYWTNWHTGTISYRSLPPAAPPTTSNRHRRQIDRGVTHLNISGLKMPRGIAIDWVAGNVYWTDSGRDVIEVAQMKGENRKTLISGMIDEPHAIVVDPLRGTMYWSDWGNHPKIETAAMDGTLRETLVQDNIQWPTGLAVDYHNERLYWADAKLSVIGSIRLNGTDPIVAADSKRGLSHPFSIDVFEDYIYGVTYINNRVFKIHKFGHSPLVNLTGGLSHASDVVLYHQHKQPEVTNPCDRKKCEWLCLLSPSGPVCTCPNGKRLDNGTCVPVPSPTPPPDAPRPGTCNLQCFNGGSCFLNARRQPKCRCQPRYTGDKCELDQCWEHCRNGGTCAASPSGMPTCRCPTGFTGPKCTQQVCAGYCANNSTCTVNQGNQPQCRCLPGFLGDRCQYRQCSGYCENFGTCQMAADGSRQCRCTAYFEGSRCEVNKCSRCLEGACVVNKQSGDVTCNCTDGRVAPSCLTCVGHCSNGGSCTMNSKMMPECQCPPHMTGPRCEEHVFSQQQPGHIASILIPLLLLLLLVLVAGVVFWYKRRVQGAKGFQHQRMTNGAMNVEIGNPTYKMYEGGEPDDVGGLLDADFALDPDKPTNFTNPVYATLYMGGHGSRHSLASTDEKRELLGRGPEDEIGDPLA

SARS-CoV-2 spike protein receptor binding domain (Arg319-Phe541), his tagged (from UniProt P0DTC2 319-541) (domain or fragment)
Kd: 192 nM
